Source: patent publication US12447133B2, “Composition and device for preventing hypoglycemia and use thereof” (THE GOVERNING COUNCIL OF THE UNIVERSITY OF TORONTO, priority 2018, dated 2025)

Columns and labels:
[1] = system: STZ-induced type 1 diabetic male Sprague Dawley rats; assay: Antidiabetic effect of S.C. microgel injection in type 1 diabetic rats; type: in vivo, rat
Experimental: Male Sprague Dawley rats (Charles River) were treated with 65 mg/kg streptozotocin (STZ) to induce type 1 diabetes. The rats receiving STZ were carefully monitored for 1 week during which time the blood sugar was measured in 2 day intervals using a glucose meter (OneTouch® Ultra®, LifeScan, Inc., USA). Diabetic rats with blood sugar stabilized above 17 mmol/L were selected for the study. All rats were fasted for 4 hours prior to the experiment to eliminate the possible confounding effect of food (BERNICE […], 1965). The blood glucose levels of the diabetic rats were monitored every 15 minutes throughout the experiment. […] The blood glucose levels were measured every 15 min after injection and stopped whenever they were above/bellow euglycemia threshold.

[2] = Stability of released glucagon (far-UV CD and RP-HPLC); type: physicochemical
Experimental: The effect of glucose concentration on microgel size was characterized using dynamic light scattering (DLS, Malvern Zetasizer Nano-ZS). Adjustment of pH was made using NaOH or HCl. Dimensions and surface morphology of freeze-dried microgels were examined by scanning electron microscopy (SEM/EDX) at an acceleration voltage of 20 kV. Transmission electron microscopy (TEM) images were performed on a Hitachi H-7500 transmission electron microscope operated at 80 kV. In addition, Rhodamine-B (Rh-B) labelling was applied to track the distribution of microgels within the microneedle array. The microgels were first immersed in 10 μg/mL of Rh-B for 12 hours at room temperature and then washed with DI-water three times. […] Glucagon and its degradation products were assayed using a reversed-phase high-performance liquid chromatography (RP-HPLC) system (Waters, MA, USA) equipped with a binary pump, autosampler, and UV detector (2899 Photodiode Detector Array, Waters, MA, USA). ^1H-NMR, and ^11B-NMR spectra were recorded in dimethyl sulfoxide (DMSO) and deuterium oxide (D2O) with a Bruker AM 400 spectrometer (400 MHz). […] Glucagon released from microgels or MNs were collected and measured using a CD spectropolarimeter (Jasco J-810, MD, USA) equipped with a Peltier temperature module set to 25° C. […]

Row | Substance | time after which blood glucose increased back to hyperglycemia ([1]; 0.5 IU/kg insulin S.C.) [h] | occurrence of hypoglycemia ([1]; 1 IU/kg insulin S.C.) | time to reach euglycemia post-injection ([1]; 1 IU/kg insulin S.C.) [min] | secondary structure of released glucagon (far-UV CD, peaks at 208 and 222 nm) ([2]; released at 50 mg/dL glucose, compared to fresh native glucagon) | degradation products of released glucagon (RP-HPLC) ([2]; released from composite patch, compared to fresh glucagon)
1 | insulin | 3 | fell even further below the hypoglycemic threshold | ≤ 45 | – | –
2 | glucagon | – | – | – | preserved | no detectable degradants
